test: soluble fraction after stress (log2 fold change); higher = more stays soluble; pooled small domains, quantitative proteomics; conditions: stress: 50 degC
Outline: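 Custom libraries of small protein domains were pooled and measured in a high-throughput format, with quantitative proteomics as the read-out. Each library was stressed at 50°C. The value is the log2 fold change in the amount of each protein that stays soluble after stress, used as a measure of aggregation propensity; higher values mean more of the protein stays soluble.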

Which “soluble fraction (log2)” value does the source give for “HMELDREALSDGLRRLSQLLAEDDIESRTLFRELAPGLKEQLGDDAVEKLAGHISRYEFEQAGALLATSG” here?
The value was -0.0341.

Which “soluble fraction (log2)” value does the source give for “HMELIELTVTEEFEMARLDQFLAGHLTQSRTYIQKLIKAGQITINGNLITRVKVPVHYGDFILINIPDPE” here?
Its value is -3.54.

With “HMELKFIGEAVNNPKRPLIAILGGAKVSDKIGVIENLLTKADKILIGGAMMFTFLKAEGKNIGTSLVED” as the sequence, how does the “soluble fraction (log2)” value read?
The value was 0.0616.

Which “soluble fraction (log2)” value does the source give for “HMELLEVSVIIREADSTGWSAARQGMEQAAADLGAELRFLTLSQSNSAEEQRSLLAREVEGGADAVVLV” here?
Its value is -0.142.

Which “soluble fraction (log2)” value does the source give for “HMELNEMEAWSLVSKALRNGTYGAVEEFSRLPPTVQEAVGNPDNLRNWATSDYKAIETVIQSNFIKTY” here?
The value was -0.12.

With “HMELNILELKSKERKISLEDHLYIKSFNFDNETNEYFYRLAFNSSKDLKNFKATINNDKTISIINFEI” as the sequence, how does the “soluble fraction (log2)” value read?
The value was -3.16.

With “HMELPVNSIRVPDVVGLSLREAMQAMTDAGVPWQSVQAKGVGFVSRQSPEAGTVTQLRRVRLELKLF” as the sequence, how does the “soluble fraction (log2)” value read?
The value was -2.58.

Which “soluble fraction (log2)” value does the source give for “HMELSPVDLGERLKIARETANFTQDAAAKAVGIARTTLVSIEKGQRTARLDEIQALSRFYGVSANALLR” here?
The value was -0.499.

For “HMELTDRQKQIIEIVKKQQPISGEKIASILGFARATLRPDFSLLTMSGILQAKPKVGYLINEE”, which “soluble fraction (log2)” value is on record?
The value was -0.152.

With “HMELVEVGDLTGLTVEQAENVLKNSNISISIDKYDESDKYEKDQIISQNPQNKKVKKGTAIHVVLSNGP” as the sequence, how does the “soluble fraction (log2)” value read?
Its value is 0.0285.

With “HMEMKMGHIISKLRYESGYSQVELAEKIGITKGAVGMYETDKRKPDYDTLIKLADLFNVSTDYLLS” as the sequence, how does the “soluble fraction (log2)” value read?
Its value is 0.0501.

For “HMEMNDFETLRDMYLTGKIWNVGDIVEANGVRGKVIRKGTNYLSFVDEDNKVHKAWLYDIEE”, which “soluble fraction (log2)” value is on record?
The value was -0.197.

With “HMEMSLGEKLKQARLTKNFSQEYMAEVLQISQKTYSNFENNKTKPDFSQIEEISKVLETSILEFLT” as the sequence, how does the “soluble fraction (log2)” value read?
The value was -0.152.

For “HMEMTGAHLRKKIRAKGFTFQQIADAIGESKQNLSQILSTNNIKTGTLERIAAAMGESVSYF”, which “soluble fraction (log2)” value is on record?
The value was -0.191.

For “HMENDYTQAQFVQDLDSGVVREVIIIPNREAPTGYARVVFGDVVRELYATDIREVEALAREHGYEPTVED”, which “soluble fraction (log2)” value is on record?
The value was 0.209.

With “HMENFDNIFDQRLMPSLFIIRNINQAIENNNNNKFLLNSTISMKDKHWIEIHPHHLKLIISGYQT” as the sequence, how does the “soluble fraction (log2)” value read?
The value was -0.238.

For “HMENIEVDFGVGDTVSVIGGAWKDTVGVVQAMNPNKQSLTINVELFGRETPVEISFTDVQKM”, which “soluble fraction (log2)” value is on record?
Its value is -0.0126.

Which “soluble fraction (log2)” value does the source give for “HMENINIRNMGIRAVEAAIISLSPDQRTFTWGATNKKLVTVPYEENPYSALAAFFKTDDGIEIYDAIEKRL” here?
Its value is -0.892.

Which “soluble fraction (log2)” value does the source give for “HMENNNIAFSKFLEEVDSGRVVQVEIQGNNISGTLSDGSKFKTYSPNYPDLVSKLSEKNVSIIASPV” here?
The value was 0.115.

With “HMENPLVEVVVPVLNEERILKANIETLHHFLRTQPGFNFRITIADNGSTDKTQAIANDLTNSHAVIRV” as the sequence, how does the “soluble fraction (log2)” value read?
Its value is -0.12.

Which “soluble fraction (log2)” value does the source give for “HMENPMIEQLKQFIEAQGLTQGQLAAKLGVSTATVNQYLQGKYKGDTAALDAKAAQLMARSREK” here?
Its value is 0.103.

With “HMENRILIPTAENIGERLDRYISSELDAPRSQVQIWIDSGLVAVSGGLKPKNYRLREGDEIEVTIPDPV” as the sequence, how does the “soluble fraction (log2)” value read?
The value was 0.0407.

With “HMENRLREVRDEIATRHGILPTVFINDRVLMNIHSKKPKDVSQLWQVDGISDEFIMKYGPEFIAEYKKKAK” as the sequence, how does the “soluble fraction (log2)” value read?
The value was 0.0216.

For “HMENRREYQKAIDYLSDQIRAGTLTVGSRLPTERAIAEALGISRNSTREALRTMENMGMIESKQGSGHYLT”, which “soluble fraction (log2)” value is on record?
The value was -0.00154.

For “HMENTELIELRKKRNLSQSQLAELLDLTRNQIANYESGRRIPDQETKQIIAGFFEMPAEEIFAG”, which “soluble fraction (log2)” value is on record?
The value was 0.0435.

For “HMENTFNENLRRIRKEKKITQEQLAEFVGVSPQAVSKWEMNSFPDASLLPKIAEKLEVSIDELFGLK”, which “soluble fraction (log2)” value is on record?
Its value is 0.000882.

With “HMENTVVMPNLLGKTMTEAKIELKDLSISITLKGSENSSQYAAGQIISQSVDSGTRVAVGSSVEVTIAGS” as the sequence, how does the “soluble fraction (log2)” value read?
Its value is 0.0377.

With “HMENVIYGINGPVVTVRNSRSFSMMEMVFVGNERLVGEVIGITDKITTIQVYEETTGLRPGEPVYGTGSPM” as the sequence, how does the “soluble fraction (log2)” value read?
The value was -3.97.

With “HMENVRKTEWVTISNDKSQTRTTVYFESGNQKLDKHPQIQGFEYQRTYVEGGVKYYLFVEKGTKLDE” as the sequence, how does the “soluble fraction (log2)” value read?
The value was -0.166.

With “HMENYGEAITYIHGMIEDSSEKMLAASKALKVNANTLIKFMKDPYSVAAHIRDRIVENLANLEKAVKAI” as the sequence, how does the “soluble fraction (log2)” value read?
Its value is 0.075.

With “HMENYYMPVVAGQSEQDAKSMLNAMKLSLSIQVQEQESDSVAKGLAIGTSPAAGSQIRKGSSVILYISKGA” as the sequence, how does the “soluble fraction (log2)” value read?
The value was -0.0609.

For “HMEPALYRLFMAHPELNASAVARRLGIAQSLLAQYISGSKKPSPERERMILTEIHKIGEELATAS”, which “soluble fraction (log2)” value is on record?
Its value is -0.65.

Which “soluble fraction (log2)” value does the source give for “HMEPAPPPAAPPADPELQKRIDKLVEYIGKNGPEFEAVIRDKQHDNPDYAFVFGGEGHAYYRYLLWLLPRP” here?
The value was 0.00294.

With “HMEPELLTTKQVASVMNIGEERARAILLSRGVQPVSLPWGKERKTLRWSRRAVMTVIDTLHAEAQAKAGV” as the sequence, how does the “soluble fraction (log2)” value read?
The value was -0.582.

Which “soluble fraction (log2)” value does the source give for “HMEPLPDIPRGTRVSHQTAPADGDMPERRETGWTMTEPIRAQDGLAYVGVSVYGRGVVMLPVNSLSII” here?
Its value is -0.319.

With “HMEPSAQEIANKLLGHVKSLGLPITGLSISYNSTSDLATVRGQVQSQADREKIILAVGNVDHVAKVDDQLT” as the sequence, how does the “soluble fraction (log2)” value read?
The value was -0.0356.

Which “soluble fraction (log2)” value does the source give for “HMEPSQEFSLADMVAYDLTGYPKSAALRAAVGASLGIGYGNAKQFVYRLNHYGISKDDFHRAAQEALDGL” here?
Its value is -0.87.

For “HMEPTAEQLKAIRQFASVNGRSWKSELRYLWETGAYHRAALGGADPGYLQQVRNQFGPGWLRAFKISK”, which “soluble fraction (log2)” value is on record?
The value was -0.852.

With “HMEPTPREIVVQQLGYRGLEVLGNAEYQFPKETQIIILKLAELISSGSVTETLEGGKLLALFRGVGINVR” as the sequence, how does the “soluble fraction (log2)” value read?
The value was -1.59.

Which “soluble fraction (log2)” value does the source give for “HMEPVQPVMYSEFIESVERGEVVEATIQGDKIIATDRSGNRYTVVGSAKDPQLVGQLLERNVAFKFVEE” here?
The value was 0.00245.

With “HMEQAMIVILKENPDRRQLEFLTGWLQKQQIGIHISEGAHQTVLGLVGDATRLDIDMLKQMEIVEDVKRVQ” as the sequence, how does the “soluble fraction (log2)” value read?
The value was -0.0829.

For “HMEQGDTQQEIREKILNLLADGERHMITELKNIRTDQPIDDDKIVGKTLKTLLDEEEVYMDGSYIQLNG”, which “soluble fraction (log2)” value is on record?
Its value is 0.259.

Which “soluble fraction (log2)” value does the source give for “HMEQIGSIIKDIRKKNNLTQNEFASILGVTFQAVSKWENDKSIPDITILKDISNKFNVDLNYLISG” here?
The value was -0.0472.

For “HMEQISVPIFTNDELVTFARSYSGELGYKIDDMAVLALYNRISNIQRLDQATTLTEVKDIVDEAVAKSE”, which “soluble fraction (log2)” value is on record?
Its value is -0.0661.

Which “soluble fraction (log2)” value does the source give for “HMEQLESAVASRTLIGQAQGVIMERYGLSAPNAFSVLSRISQDSNTKLAEVAQQIVATRRIPG” here?
The value was -0.188.

Which “soluble fraction (log2)” value does the source give for “HMEQLNKNIKFDNFLESLNFINKVSEVAEEENHHPDLKFGWGYADITIFTHAIKGLSEGDFVLAAKIDVI” here?
The value was 0.269.

For “HMEQMSLISKKKGERIDKFLGENLGDLSRSYIQKLLKDGLILVNGKKVKANYKLNEGDQIDVEVPDP”, which “soluble fraction (log2)” value is on record?
The value was 0.303.

For “HMEQMSPYPNPSKGKIQFHNQEPMDIKVFNSLGQIVFEQRILSRAILDLSRLSPGQYIVQAGEQKNIWIK”, which “soluble fraction (log2)” value is on record?
The value was -0.699.

For “HMEQPPVPSVSITAALGSAVARRLAPHGFQKMPDLVDAYRAGKLAQISGIGGTTLDLIREWLTANARQQ”, which “soluble fraction (log2)” value is on record?
The value was 0.0154.

With “HMEQQEFIVPHDSEGQRLDLFLVSVLGTHSRSQIRKLIVNGHVKLENRAPRPNLPVRAGESVVVSMPEPT” as the sequence, how does the “soluble fraction (log2)” value read?
Its value is 0.121.

From the domain aggregation screens of Martell et al. (2025)
